Test results from patent publication US20150344570A1 (published 2015).

Tests used:
FcγRIIIa [1] = molecular target: T1, FcγRIIIa (human, UniProt P08637 17-208); assay: ratio of SPR KDs: KD of GpH7-G1d/GpL16-k0 divided by KD of this antibody
T1 construct: extracellular domain; also called FcgRIIIa; CD16A; not shown: His tag attached to the C terminus
Experimental: (§1) The prepared antibodies were compared for the FcγRIIIa-binding activity using, as an indicator, KD for FcγRIIIa that was determined according to the method described in Reference Example 2.
(§2) Analysis of interaction between objective antibody and the FcγR was carried out using Biacore T100 (GE Healthcare). HBS-EP+ (GE Healthcare) was used as the running buffer, and the measurement temperature was set to 25° C. Chips produced by immobilizing the antigen peptide by the amine coupling method to a Series S Sencor Chip CM5 (GE Healthcare), or alternatively, chips produced by allowing preliminarily biotinylated antigen peptides to interact with and immobilize onto a Series S Sensor Chip SA (certified) (GE Healthcare) were used. Antibodies of interest were captured onto an antigen peptide-immobilized chip, and allowed to interact to each FcγR diluted with running buffer. To regenerate and repeatedly use the chip, the antibodies captured on the chip were washed off by reacting 10 mM glycine-HCl, pH 1.5.
(§3) Specifically, to calculate association rate constant ka (L/mol/s) and dissociation rate constant kd (1/s), sensorgrams obtained by measurement were processed for global fitting by Biacore Evaluation Software using 1:1 Langmuir binding model and dissociation constant KD (mol/1) was calculated from the resulting values.

FcγRIIIa [2] = molecular target: T1, FcγRIIIa; assay: ratio of SPR KDs: KD of GpH7-A5/GpH7-B3/GpL16-k0 divided by KD of this antibody
Experimental: as §1, §2, §3

FcγRIIIa [3] = molecular target: T1, FcγRIIIa; assay: ratio of SPR KDs: KD of GpH7-A5/GpH7-B78/GpL16-k0 divided by KD of this antibody
Experimental: To assess this hypothesis, GpH7-A53 (SEQ ID NO: 42) resulting from the introduction of S239D into GpH7-A5 was constructed, and, this is combined with GpH7-B78 introduced with S239D, A330L, and I332E, and the expression and preparation were performed according to the method described in Reference Example 1. The effect of the combination of S239D and S239D, A330L, and I332E was assessed by comparing the FcγRIIIa binding between the heterodimerized and homodimerized antibodies with S239D, A330L, and I332E according to the method described in Reference Example 2 (Table 14).
as §2, §3

FcγRIIIa [4] = molecular target: T1, FcγRIIIa; assay: ratio of SPR KDs: KD of GpH7-TA7/GpH7-B78/GpL16-k0 divided by KD of this antibody
Text: First, it was considered which H chain should be introduced with Y296W. GpH7-TA52 (SEQ ID NO: 44) resulting from the introduction of the mutation Y296W into GpH7-TA7 was constructed, and expressed and prepared in combination with GpH7-B78 according to the method described in Reference Example 1. Furthermore, GpH7-TA58 (SEQ ID NO: 45) resulting from the introduction of Y296W into GpH7-B78 was constructed, and expressed and prepared in combination with GpH7-TA22 according to the method described in Reference Example 1. To assess the effects of combinations with Y296W, the prepared antibodies were compared for the FcγRIIIa-binding activity according to the method described in Reference Example 2 (Table 16).
as §2

T1 sequence (P08637 17-208): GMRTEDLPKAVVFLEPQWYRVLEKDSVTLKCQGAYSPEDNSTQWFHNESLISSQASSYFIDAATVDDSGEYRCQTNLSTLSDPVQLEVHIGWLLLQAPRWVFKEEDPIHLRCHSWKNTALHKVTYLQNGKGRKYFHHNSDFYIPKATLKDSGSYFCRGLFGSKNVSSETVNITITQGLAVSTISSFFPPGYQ

Row | Binder | KD ratio 1 (FcγRIIIa [1]) [fold] | KD ratio 2 (FcγRIIIa [2]) [fold] | KD ratio (FcγRIIIa [3]) [fold] | KD ratio (FcγRIIIa [4]) [fold]
1 | GpH7-A5/GpH7-B78/GpL16-k0 (antibody, human IgG1, kappa, Anti-glypican-3 IgG1 heterodimer; S239D/A330L/I332E in H2 only) heavy 1: not shown heavy 2: QVQLVQSGAEVKKPGASVTVSCKASGYTFTDYEMHWIRQPPGEGLEWIGAIDPKTGDTAYSESFQDRVTLTADKSTSTAYMELSSLTSEDTAVYYCTRFYSYTYWGQGTLVTVSSASTKGPSVFPLAPSSKSTSGGTAALGCLVKDYFPEPVTVSWNSGALTSGVHTFPAVLQSSGLYSLSSVVTVPSSSLGTQTYICNVNHKPSNTKVDKKVEPKSCDKTHTCPPCPAPELLGGPDVFLFPPKPKDTLMISRTPEVTCVVVDVSHEDPEVKFNWYVDGVEVHNAKTKPREEQYNSTYRVVSVLTVLHQDWLNGKEYKCKVSNKALPLPEEKTISKAKGQPREPQVYTLPPSRDELTKNQVSLTCLVKGFYPSDIAVEWESNGQPENNYKTTPPVLDSDGSFFLYSKLTVDKSRWQQGNVFSCSVMHEALHNHYTQESLSLSP light: DIVMTQSPLSLPVTPGEPASISCQASESLVHSNRNTYLHWYLQKPGQSPQLLIYKVSNRFSGVPDRFSGSGSGTDFTLKISRVEAEDVGVYYCSQNTHVPPTFGQGTKVEIERTVAAPSVFIFPPSDEQLKSGTASVVCLLNNFYPREAKVQWKVDNALQSGNSQESVTEQDSKDSTYSLSSTLTLSKADYEKHKVYACEVTHQGLSSPVTKSFNRGEC | 23 | 30 | 1 | –
2 | GpH7-A53/GpH7-B78/GpL16-k0 (antibody, human IgG1, kappa, Anti-glypican-3 IgG1 heterodimer; S239D in H1, S239D/A330L/I332E in H2) heavy 1: QVQLVQSGAEVKKPGASVTVSCKASGYTFTDYEMHWIRQPPGEGLEWIGAIDPKTGDTAYSESFQDRVTLTADKSTSTAYMELSSLTSEDTAVYYCTRFYSYTYWGQGTLVTVSSASTKGPSVFPLAPSSKSTSGGTAALGCLVKDYFPEPVTVSWNSGALTSGVHTFPAVLQSSGLYSLSSVVTVPSSSLGTQTYICNVNHKPSNTKVDKKVEPKSCDKTHTCPPCPAPELLGGPDVFLFPPKPKDTLMISRTPEVTCVVVDVSHEDPEVKFNWYVDGVEVHNAKTKPREEQYNSTYRVVSVLTVLHQDWLNGKEYKCKVSNKALPAPIEKTISKAKGQPREPQVYTLPPSRKELTKNQVSLTCLVKGFYPSDIAVEWESNGQPENNYKTTPPVLDSDGSFFLYSKLTVDKSRWQQGNVFSCSVMHEALHNRYTQKSLSLSP heavy 2: QVQLVQSGAEVKKPGASVTVSCKASGYTFTDYEMHWIRQPPGEGLEWIGAIDPKTGDTAYSESFQDRVTLTADKSTSTAYMELSSLTSEDTAVYYCTRFYSYTYWGQGTLVTVSSASTKGPSVFPLAPSSKSTSGGTAALGCLVKDYFPEPVTVSWNSGALTSGVHTFPAVLQSSGLYSLSSVVTVPSSSLGTQTYICNVNHKPSNTKVDKKVEPKSCDKTHTCPPCPAPELLGGPDVFLFPPKPKDTLMISRTPEVTCVVVDVSHEDPEVKFNWYVDGVEVHNAKTKPREEQYNSTYRVVSVLTVLHQDWLNGKEYKCKVSNKALPLPEEKTISKAKGQPREPQVYTLPPSRDELTKNQVSLTCLVKGFYPSDIAVEWESNGQPENNYKTTPPVLDSDGSFFLYSKLTVDKSRWQQGNVFSCSVMHEALHNHYTQESLSLSP light: DIVMTQSPLSLPVTPGEPASISCQASESLVHSNRNTYLHWYLQKPGQSPQLLIYKVSNRFSGVPDRFSGSGSGTDFTLKISRVEAEDVGVYYCSQNTHVPPTFGQGTKVEIERTVAAPSVFIFPPSDEQLKSGTASVVCLLNNFYPREAKVQWKVDNALQSGNSQESVTEQDSKDSTYSLSSTLTLSKADYEKHKVYACEVTHQGLSSPVTKSFNRGEC | – | – | 4.9 | –
3 | GpH7-A57/GpH7-B78/GpL16-k0 (antibody, human IgG1, kappa, Anti-glypican-3 IgG1; The two chains differ only in D356K/H435R and K439E) heavy 1: QVQLVQSGAEVKKPGASVTVSCKASGYTFTDYEMHWIRQPPGEGLEWIGAIDPKTGDTAYSESFQDRVTLTADKSTSTAYMELSSLTSEDTAVYYCTRFYSYTYWGQGTLVTVSSASTKGPSVFPLAPSSKSTSGGTAALGCLVKDYFPEPVTVSWNSGALTSGVHTFPAVLQSSGLYSLSSVVTVPSSSLGTQTYICNVNHKPSNTKVDKKVEPKSCDKTHTCPPCPAPELLGGPDVFLFPPKPKDTLMISRTPEVTCVVVDVSHEDPEVKFNWYVDGVEVHNAKTKPREEQYNSTYRVVSVLTVLHQDWLNGKEYKCKVSNKALPLPEEKTISKAKGQPREPQVYTLPPSRKELTKNQVSLTCLVKGFYPSDIAVEWESNGQPENNYKTTPPVLDSDGSFFLYSKLTVDKSRWQQGNVFSCSVMHEALHNRYTQKSLSLSP heavy 2: QVQLVQSGAEVKKPGASVTVSCKASGYTFTDYEMHWIRQPPGEGLEWIGAIDPKTGDTAYSESFQDRVTLTADKSTSTAYMELSSLTSEDTAVYYCTRFYSYTYWGQGTLVTVSSASTKGPSVFPLAPSSKSTSGGTAALGCLVKDYFPEPVTVSWNSGALTSGVHTFPAVLQSSGLYSLSSVVTVPSSSLGTQTYICNVNHKPSNTKVDKKVEPKSCDKTHTCPPCPAPELLGGPDVFLFPPKPKDTLMISRTPEVTCVVVDVSHEDPEVKFNWYVDGVEVHNAKTKPREEQYNSTYRVVSVLTVLHQDWLNGKEYKCKVSNKALPLPEEKTISKAKGQPREPQVYTLPPSRDELTKNQVSLTCLVKGFYPSDIAVEWESNGQPENNYKTTPPVLDSDGSFFLYSKLTVDKSRWQQGNVFSCSVMHEALHNHYTQESLSLSP light: DIVMTQSPLSLPVTPGEPASISCQASESLVHSNRNTYLHWYLQKPGQSPQLLIYKVSNRFSGVPDRFSGSGSGTDFTLKISRVEAEDVGVYYCSQNTHVPPTFGQGTKVEIERTVAAPSVFIFPPSDEQLKSGTASVVCLLNNFYPREAKVQWKVDNALQSGNSQESVTEQDSKDSTYSLSSTLTLSKADYEKHKVYACEVTHQGLSSPVTKSFNRGEC | 199 | 263 | 8.7 | –
4 | GpH7-TA7/GpH7-TA58/GpL16-k0 (antibody, human IgG1, kappa, Anti-glypican-3 IgG1 heterodimer; L234Y/G236W/S298A in H1, S239D/A330L/I332E/Y296W in H2) heavy 1: QVQLVQSGAEVKKPGASVTVSCKASGYTFTDYEMHWIRQPPGEGLEWIGAIDPKTGDTAYSESFQDRVTLTADKSTSTAYMELSSLTSEDTAVYYCTRFYSYTYWGQGTLVTVSSASTKGPSVFPLAPSSKSTSGGTAALGCLVKDYFPEPVTVSWNSGALTSGVHTFPAVLQSSGLYSLSSVVTVPSSSLGTQTYICNVNHKPSNTKVDKKVEPKSCDKTHTCPPCPAPEYLWGPSVFLFPPKPKDTLMISRTPEVTCVVVDVSHEDPEVKFNWYVDGVEVHNAKTKPREEQYNATYRVVSVLTVLHQDWLNGKEYKCKVSNKALPAPIEKTISKAKGQPREPQVYTLPPSRKELTKNQVSLTCLVKGFYPSDIAVEWESNGQPENNYKTTPPVLDSDGSFFLYSKLTVDKSRWQQGNVFSCSVMHEALHNRYTQKSLSLSP heavy 2: QVQLVQSGAEVKKPGASVTVSCKASGYTFTDYEMHWIRQPPGEGLEWIGAIDPKTGDTAYSESFQDRVTLTADKSTSTAYMELSSLTSEDTAVYYCTRFYSYTYWGQGTLVTVSSASTKGPSVFPLAPSSKSTSGGTAALGCLVKDYFPEPVTVSWNSGALTSGVHTFPAVLQSSGLYSLSSVVTVPSSSLGTQTYICNVNHKPSNTKVDKKVEPKSCDKTHTCPPCPAPELLGGPDVFLFPPKPKDTLMISRTPEVTCVVVDVSHEDPEVKFNWYVDGVEVHNAKTKPREEQWNSTYRVVSVLTVLHQDWLNGKEYKCKVSNKALPLPEEKTISKAKGQPREPQVYTLPPSRDELTKNQVSLTCLVKGFYPSDIAVEWESNGQPENNYKTTPPVLDSDGSFFLYSKLTVDKSRWQQGNVFSCSVMHEALHNHYTQESLSLSP light: DIVMTQSPLSLPVTPGEPASISCQASESLVHSNRNTYLHWYLQKPGQSPQLLIYKVSNRFSGVPDRFSGSGSGTDFTLKISRVEAEDVGVYYCSQNTHVPPTFGQGTKVEIERTVAAPSVFIFPPSDEQLKSGTASVVCLLNNFYPREAKVQWKVDNALQSGNSQESVTEQDSKDSTYSLSSTLTLSKADYEKHKVYACEVTHQGLSSPVTKSFNRGEC | – | – | – | 1.2
